Results: article PMC7477763

Target: B-Ub-MERS27-VME (UniProt P0CG48)
Sequence of UniProt P0CG48 (P0CG48 whole entry, looked up): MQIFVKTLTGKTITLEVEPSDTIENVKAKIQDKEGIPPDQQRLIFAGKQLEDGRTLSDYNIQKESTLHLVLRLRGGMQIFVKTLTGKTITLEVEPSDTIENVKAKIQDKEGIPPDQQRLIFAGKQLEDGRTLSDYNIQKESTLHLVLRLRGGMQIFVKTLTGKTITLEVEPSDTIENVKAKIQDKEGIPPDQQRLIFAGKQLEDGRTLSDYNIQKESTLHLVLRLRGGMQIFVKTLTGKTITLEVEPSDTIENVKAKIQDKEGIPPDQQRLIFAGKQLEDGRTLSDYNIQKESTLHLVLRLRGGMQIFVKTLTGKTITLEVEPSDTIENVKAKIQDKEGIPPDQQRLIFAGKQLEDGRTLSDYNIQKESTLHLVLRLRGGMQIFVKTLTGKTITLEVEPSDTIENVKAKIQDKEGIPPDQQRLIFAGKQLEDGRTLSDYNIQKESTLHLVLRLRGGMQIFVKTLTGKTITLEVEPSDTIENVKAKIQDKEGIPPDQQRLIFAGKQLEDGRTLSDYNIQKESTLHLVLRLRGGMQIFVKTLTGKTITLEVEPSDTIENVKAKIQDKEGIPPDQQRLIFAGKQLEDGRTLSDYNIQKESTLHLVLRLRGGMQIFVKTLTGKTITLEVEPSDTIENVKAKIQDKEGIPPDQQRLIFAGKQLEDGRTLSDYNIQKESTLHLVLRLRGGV

“Middle East respiratory syndrome papain-like protease (MERS PLpro), recombinant” was tested, and the kobs/I was 22 144 ± 1431 M^–1 s^–1.
